According to US20210317211A1 (published 2021):

Experiments:
[1] = biological target: T1, mouse TREM2 over-expressed on Expi 293 cells (mouse, UniProt Q99NH8 19-227); assay: flow cytometry on Expi 293 cells over-expressing mouse TREM2; Alexa Fluor 647 secondary antibody
T1 construct: also called Expi-mTREM2; mTREM2
T1 sequence: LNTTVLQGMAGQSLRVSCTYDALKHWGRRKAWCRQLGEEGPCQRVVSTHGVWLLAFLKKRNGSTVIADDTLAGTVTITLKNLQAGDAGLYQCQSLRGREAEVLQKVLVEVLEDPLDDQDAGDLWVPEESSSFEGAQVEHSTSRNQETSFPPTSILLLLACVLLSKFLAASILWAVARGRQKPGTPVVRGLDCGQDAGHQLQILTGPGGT
Procedure: (§1) 100,000 to 500,000 Expi 293 parental cells or Expi 293 cells over-expressing human or mouse TREM2 were plated in […] well plates and dead cells were stained with Zombie Near Infrared (Biolegend). Titrations of indicated unconjugated antibodies were incubated with these cells within a range of 0 ug/ml to 10 ug/ml in a 1:3 dilution range across 8-10 points. Dependent on their isotype (higG1 or mIgG2a), these primary unconjugated antibodies were detected with Alexa Fluor 647 conjugated anti-human Fc or anti-mouse Fc secondary antibodies (Jackson Immunoresearch). Alexa Fluor 647 signal was measured by flow cytometry (BD Fortessa X-14, BD Biosciences). EC50 values were calculated by curve fitting signal generated from antibodies binding to over-expressing cells over background fluorescence generated from HEK293 parental cells in Graphpad Prism (Graphpad Software).

[2] = biological target: T2, human TREM2 over-expressed on Expi 293 cells (human, UniProt Q9NZC2 19-230); assay: flow cytometry on Expi 293 cells over-expressing human TREM2; Alexa Fluor 647 secondary antibody
T2 construct: also called Expi-hTREM2; hTREM2
T2 sequence: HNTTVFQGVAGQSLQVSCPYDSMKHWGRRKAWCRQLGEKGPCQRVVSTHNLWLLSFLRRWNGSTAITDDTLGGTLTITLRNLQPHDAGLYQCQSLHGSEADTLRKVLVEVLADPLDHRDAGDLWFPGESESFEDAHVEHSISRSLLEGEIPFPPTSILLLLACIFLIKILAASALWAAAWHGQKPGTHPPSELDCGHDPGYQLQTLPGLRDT
Procedure: as §1

- EC50 [1]: 900 pM
- EC50 [2]: 600 pM
B1: Rat IgG2B Clone #237920 (R&D Systems Cat #MAB17291) (antibody, V domains shown)
VH: EVQLVESGGGLVQPGRSLKLSCAASGFTFSNYYMAWVRQAPTKGLEWVASLTNSGGSTYYRDSVKGRFTLSRDNAKSTLYLQMDSLRSEDTATYYCTREWAGSGYFDYWGQGVMVTVSS
VL: NIVMTQSPKSMSLSVGDRVTMNCKASQNVGNNLAWYQQKPGQSPKLLLYYTSNRFTGVPDRFTGGGYGTDFTLTINSVQAEDAAFYYCQRIYNSPWTFGGGTKLELKR
notes: also called mAb 237920
